Experimental data as given in patent US20170073430A1 (published 2017).
Read-outs that look alike come from different tables or passages of the source.

How the values were obtained:
Assay in all cases: SPR
[1] = molecular target: T1, monomeric hRNF43-His antigen (UniProt Q68DV7 24-197)
T1 chain: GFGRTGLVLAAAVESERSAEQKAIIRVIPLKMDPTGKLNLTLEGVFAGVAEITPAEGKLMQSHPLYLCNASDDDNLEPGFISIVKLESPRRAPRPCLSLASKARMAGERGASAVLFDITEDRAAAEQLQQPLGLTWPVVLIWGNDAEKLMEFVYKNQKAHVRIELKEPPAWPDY

[2] = molecular target: T1, monomeric hRNF43-His antigen
[3] = molecular target: T1, monomeric hRNF43-His antigen
[4] = molecular target: T1, monomeric hRNF43-His antigen
[5] = molecular target: rSC37.17
[6] = molecular target: SC37.23
[7] = molecular target: SC37.9
[8] = molecular target: rSC37.39
[9] = molecular target: SC37.78
[10] = molecular target: rSC37.67

B1: SC37.3 (antibody, V domains shown)
VH: QIQLVQSGPELKKPGETVKISCKASGYTFTNYGMNWVRQAPGKGLKWVGWINTNTGEPTYADDFKGRFAFSLETSASTAYLQISNLKNEDMSTYFCAGSHDYSFAYWGQGTLVTVSA
VL: QAVVTQESALTTSPGETVTFTCRSSTGAVTTSNYANWVQEKPDHLFTGLIGGTNNRAPGVPARFSGSLIGDKAALTITGAQTEDEAIYFCALWYSNHWVFGGGTKLTVL
B1 was tested, and the Kd [1] was 44 nM.

B2: hSC37.67 (antibody, V domains shown)
VH: QVQLVQSGAEVKKPGASVKVSCKASGYTFTRYWIEWVRQAPGQRLEWMGEILPGSGSTNYNEKFKGRVTITADTSASTAYMELSSLRSEDTAVYYCERRGAYWGQGTLVTVSS
VL: DIQMTQSPSSLSASVGDRVTITCKASEDIYNRLAWYQQKPGKAPKLLISGATSLETGVPSRFSGSGSGTDYTLTISSLQPEDFATYYCQQNWSTPPTFGGGTKVEIKR
B2 gave a Kd [2] of 4.2 nM.

B3: hSC37.17 (antibody, V domains shown)
VH: QVQLVQSGAEVKKPGASVKVSCKASGFNIKDTYIHWVRQAPGQGLEWMGRIDPANGKANYDPKFQGRVTMTRDTSTSTVYMELSSLRSEDTAVYYCALGGGYYGMDYWGQGTLVTVSS
VL: DIVMTQSPDSLAVSLGERATINCRASESVDSYGNSFMHWYQQKPGQPPKLLIYLASNLESGVPDRFSGSGSGTDFTLTISSLQAEDVAVYYCQQNNEDPLTFGQGTKVEIKR
Work on B3 yielded a Kd [3] of 1.2 nM.

B4: SC37.39 (antibody, V domains shown)
VH: QVQLQQSAAELARPGASVKMSCKASGYTFTTYTIHWVKQRPGQGLKWIGYINPRSGYTEYNQKFQDKTTMTSDNSSSTAYIQLSSLTSEDSAVYYCARSYEFWGQGTTLTVSS
VL: DIVMTQSQKFMSTSGGDRVSVTCKASQNVGINVAWYQQKPGQSPKALIYSASYRYSGVPNRFTGSGSGTDFTLTISNVQSEDLGDYFCHQYKTYPYTFGGGTKLEIK
B4 was tested, and the Kd [4] was 1.1 nM.

B5: SC37.67 (antibody, V domains shown)
VH: QVQLQQSGAELMKPGASVKISCKATGYTFSRYWIEWVKQRPGHGLEWIGEILPGSGSTNYNEKFKGKATFTADTSSNTAYMQLTSLTSEDSAVYFCERRGAYWGQGTLVTVSA
VL: DIQMTQSSSSFSVSLGDRVTITCKASEDIYNRLAWYQQKPGNAPRLLISGATSLETGVPSRFSGSGSGKDYTLSITSLQTEDVATYHCQQNWSTPPTFGGGTKLEIK
With B5 the Kd [2] was 3.5 nM.

B6: hSC37.39 (antibody, V domains shown)
VH: QVQLVQSGAEVKKPGASVKVSCKASGYTFTTYTIHWVRQAPGQGLEWMGYINPRSGYTEYNQKFQDRVTMTRDTSTSTVYMELSSLRSEDTAVYYCARSYEFWGQGTTVTVSS
VL: EIVMTQSPATLSVSPGERATLSCKASQNVGINVAWYQQKPGQAPRALIYSASYRYSGIPARFSGSGSGTEFTLTISSLQSEDFAVYYCHQYKTYPYTFGGGTKVEIKR
For B6, the Kd [4] was 0.34 nM.

B7: SC37.17 (antibody, V domains shown)
VH: EVQLQQSGADLVKPGASVKLSCTGSGFNIKDTYIHWVRQRPEQGLEWIGRIDPANGKANYDPKFQGKATMTADTSSKTVYVQLSSLTSEDTAVYYCALGGGYYGMDYWGRGTSVTVSS
VL: NIVLTQSPASLAVSLGQRATISCRASESVDSYGNSFMHWYQQKPGQPPKLLIYLASNLESGVPARFSGSGSRTDFTLTIDPVEADDAATYYCQQNNEDPLTFGAGTKLELK
Work on B7 yielded a Kd [3] of 9.3 nM.

B8: SC37.2 (antibody, V domains shown)
VH: EVNLVESGGGLVQPGGSLRLSCATSGFTFSDFDMEWVRQPPGKRLEWIAASRNKANDYTTQYSASVKGRFIVSRDTSQSIVYIQMNALRAEDTAIYYCARDRYDYALDYWGQGTSVTVSS
VL: DIVMSQSPSSLAVSVGEKVTMSCKSSQTLLYYSNQKNYLAWYQRKPGLSPKLLIYWASTRDSGVPDRFTGSGSGTDFTLTISSVKAEDLAVYYCQQYYNYPLTFGAGTKLELK
B8 gave a Kd [1] of 220 nM.

B9: RNF43 (other)
chain: T1 chain
With B9 the Kd [5] was 9.3 nM, the Kd [6] was 23.7 nM and the Kd [7] was 160 nM. For the same binder, the Kd [8] was 1 nM, the Kd [9] was 10.8 nM and the Kd [10] was 5.4 nM.

B10: hSC37.2 (antibody, V domains shown)
VH: EVQLVESGGGLVQPGGSLRLSCAASGFTFSDFDMEWVRQAPGKGLEWVGASRNKANDYTTQYSASVKGRFTISRDTSKNSLYLQMNSLKTEDTAVYYCARDRYDYALDYWGQGTTVTVSS
VL: DIQMTQSPSSLSASVGDRVTITCKSSQTLLYYSNQKNYLAWYQQKPGKVPKLLIYWASTRDSGVPSRFSGSGSGTDFTLTISSLQPEDVATYYCQQYYNYPLTFGQGTKLEIKR
B10 showed a Kd [1] of 120 nM.
